Measured values as given in patent US20260265409A1, “ANTIBODY FUSION PROTEIN TARGETING FAP AND TGFbeta, AND USE THEREOF” (NANJING LEADS BIOLABS CO., LTD., priority 2022, published 2026).

Assays:
murine FAP = target: T1, murine FAP (Mus musculus, UniProt P97321); test: Binding to murine FAP
T1 sequence (P97321 1-761): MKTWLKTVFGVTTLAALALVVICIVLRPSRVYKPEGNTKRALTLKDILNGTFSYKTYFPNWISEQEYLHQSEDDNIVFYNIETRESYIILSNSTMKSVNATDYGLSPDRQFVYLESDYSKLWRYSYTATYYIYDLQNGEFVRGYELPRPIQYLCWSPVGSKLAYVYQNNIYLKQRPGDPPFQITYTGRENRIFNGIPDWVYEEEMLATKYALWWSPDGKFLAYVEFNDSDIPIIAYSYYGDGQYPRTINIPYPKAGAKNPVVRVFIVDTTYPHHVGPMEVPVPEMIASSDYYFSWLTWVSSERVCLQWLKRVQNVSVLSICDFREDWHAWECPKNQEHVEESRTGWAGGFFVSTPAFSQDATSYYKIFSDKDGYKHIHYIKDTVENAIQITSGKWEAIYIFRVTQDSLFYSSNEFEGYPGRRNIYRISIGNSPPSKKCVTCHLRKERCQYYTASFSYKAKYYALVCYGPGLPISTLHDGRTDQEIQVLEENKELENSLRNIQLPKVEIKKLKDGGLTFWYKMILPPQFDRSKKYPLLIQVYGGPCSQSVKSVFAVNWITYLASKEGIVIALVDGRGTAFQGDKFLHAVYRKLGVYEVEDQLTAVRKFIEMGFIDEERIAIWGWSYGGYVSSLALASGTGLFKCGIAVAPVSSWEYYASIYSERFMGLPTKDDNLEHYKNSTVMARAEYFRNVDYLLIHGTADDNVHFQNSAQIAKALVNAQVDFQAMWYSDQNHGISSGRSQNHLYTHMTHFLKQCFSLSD

[1] = target: T2, human FAP protein expressed on 293T cells (Homo sapiens, UniProt Q12884); test: Cell binding assay by flow cytometry, 293T-human FAP cells
T2 construct: expressed in transfected cells; host or cells: 293T cells, PIRES-puro3 vector, puromycin selection
T2 sequence (Q12884 1-760): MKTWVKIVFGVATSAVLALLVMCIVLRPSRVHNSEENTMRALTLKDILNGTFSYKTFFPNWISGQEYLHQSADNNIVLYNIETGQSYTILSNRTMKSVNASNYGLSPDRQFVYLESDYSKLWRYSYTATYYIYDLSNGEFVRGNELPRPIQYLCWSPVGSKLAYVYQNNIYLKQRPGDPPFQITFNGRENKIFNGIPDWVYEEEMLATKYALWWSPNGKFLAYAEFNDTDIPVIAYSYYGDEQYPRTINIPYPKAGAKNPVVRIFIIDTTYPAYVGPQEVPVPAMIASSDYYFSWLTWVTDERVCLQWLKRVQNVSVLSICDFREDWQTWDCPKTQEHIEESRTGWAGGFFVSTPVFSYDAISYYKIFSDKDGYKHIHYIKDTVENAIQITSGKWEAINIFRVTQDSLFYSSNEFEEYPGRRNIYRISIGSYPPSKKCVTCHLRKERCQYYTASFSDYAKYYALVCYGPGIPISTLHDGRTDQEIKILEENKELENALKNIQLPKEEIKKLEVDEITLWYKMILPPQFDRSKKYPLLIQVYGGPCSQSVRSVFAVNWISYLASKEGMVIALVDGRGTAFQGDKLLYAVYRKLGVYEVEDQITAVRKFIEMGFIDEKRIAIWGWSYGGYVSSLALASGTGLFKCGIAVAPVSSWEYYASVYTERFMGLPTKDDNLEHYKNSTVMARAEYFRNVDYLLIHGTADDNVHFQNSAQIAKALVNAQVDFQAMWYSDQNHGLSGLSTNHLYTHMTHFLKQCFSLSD
Method: (§1) Whether the humanized antibody of the present disclosure can bind to human FAP protein stably expressed on the surface of 293T cells was determined by a cell binding assay. Firstly, the sequences encoding human FAP protein (NM_004460.2, SEQ ID NO: 31) and cynomolgus FAP (XM_005573320.2, SEQ ID NO: 32) were cloned into expression vector PIRES-puro3 (Clontech, Cat #631619) […]. The vectors were used to transfect 293T cells. […]
(§2) The human FAP antibodies (huF19-LG and sibrotuzumab) were 4-fold serially diluted from a starting concentration of 200 nM to a total of 8 concentrations and added to the cells for co-incubation at 4° C. for 30 min. […] The cells were washed twice with PBS and then resuspended, and finally, fluorescence signals were detected using the […] (BD Bioscience) flow cytometer.
Whether the mutant antibody in the present disclosure can bind to human or cynomolgus FAP protein stably expressed on the surface of 293T cells was determined by a cell binding assay. […] The cells were washed twice with PBS and then resuspended, and finally, fluorescence signals were detected using the […] (BD Bioscience) flow cytometer. […]

[2] = system: cynomolgus FAP protein expressed on 293T cells; test: Cell binding assay by flow cytometry, 293T-cynomolgus FAP cells
Method: as §1, §2
Whether the mutant antibody in the present disclosure can bind to human or cynomolgus FAP protein stably expressed on the surface of 293T cells was determined by a cell binding assay. […] The cells were washed twice with PBS and then resuspended, and finally, fluorescence signals were detected using the […] (BD Bioscience) flow cytometer.

[3] = Stability at 40° C., purity by SEC; assay type: physicochemical; conditions: for Purity by SEC, %: mutant antibody storage stability
Method: The purified antibodies were concentrated, and sterile filtration was performed. The purity of the antibodies was determined by size exclusion chromatography (SEC). Specifically, the samples were loaded at 20 μg onto a TSK G3000SWXL column using 100 mM sodium phosphate+100 mM Na2SO4 (pH 7.0) as a running buffer for 30 min. The collected effluent was measured using the Agilent 1220 HPLC system and the data were analyzed using OpenLAB software.
The huF19-LG antibody was tested for stability at 40° C. ELISA (see Example 1.2) and SEC (see Example 1.1) were conducted at 0 weeks (OW), 2 weeks (2W), or 4 weeks (4W) with the results shown as follows:
The activity and purity of the molecule were determined by SEC after storage. See Example 1.5 for the specific procedures.

cynomolgus FAP protein expressed on 293T cells, sequence (as listed by the source): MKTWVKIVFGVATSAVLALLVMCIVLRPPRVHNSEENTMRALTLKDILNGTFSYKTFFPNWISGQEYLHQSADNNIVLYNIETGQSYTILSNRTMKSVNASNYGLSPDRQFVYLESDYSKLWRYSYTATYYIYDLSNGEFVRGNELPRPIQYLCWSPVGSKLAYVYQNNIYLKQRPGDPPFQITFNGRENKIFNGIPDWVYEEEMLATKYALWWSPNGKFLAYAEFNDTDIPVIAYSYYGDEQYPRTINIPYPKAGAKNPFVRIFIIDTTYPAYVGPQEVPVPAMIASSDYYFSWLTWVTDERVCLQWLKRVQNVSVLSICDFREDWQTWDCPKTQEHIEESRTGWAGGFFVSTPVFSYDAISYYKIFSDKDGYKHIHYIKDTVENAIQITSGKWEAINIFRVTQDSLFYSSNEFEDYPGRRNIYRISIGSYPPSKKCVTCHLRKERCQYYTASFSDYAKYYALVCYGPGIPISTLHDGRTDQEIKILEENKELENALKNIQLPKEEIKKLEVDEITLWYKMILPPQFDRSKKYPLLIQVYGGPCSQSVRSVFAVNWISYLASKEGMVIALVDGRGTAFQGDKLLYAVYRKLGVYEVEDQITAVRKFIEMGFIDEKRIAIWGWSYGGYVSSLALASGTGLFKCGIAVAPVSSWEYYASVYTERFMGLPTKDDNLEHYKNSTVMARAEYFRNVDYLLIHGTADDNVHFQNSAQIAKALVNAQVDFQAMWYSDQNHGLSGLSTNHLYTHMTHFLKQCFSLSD

B1: huF19-LG-NGR: mutant of huF19-LG with G56R (Kabat) in heavy chain CDR2; VH SEQ ID NO: 21, VL SEQ ID NO: 15 (antibody, V domains shown)
VH: QVQLVQSGAEVKKPGASVKVSCKASGYTFTEYTIHWVRQATGQGLEWIGGINPNNRIPNYNQKFKGRATMTVGTSISTAYMELSSLRSEDTAVYFCARRRIAYGYDEGHAMDYWGQGTLVTVSS
VL: DIQMTQSPSSLSASVGDRVTITCKSSQSLLYSRNQKNYLAWFQQKPGKAPKLLIFWASTRESGVPSRFTGSGFGTDFTLTISSLQPEDFATYYCQQYFSYPLTFGQGTKLEIK
Murine FAP
  binding to murine protein: cannot bind to murine protein
[1]
  binding to human FAP protein expressed on engineered 293T cells (FACS): can bind to human FAP protein and cynomolgus FAP protein expressed on engineered 293T cells, with the binding capacities comparable to those of the antibody before mutation
[2]
  binding to cynomolgus FAP protein expressed on engineered 293T cells (FACS): can bind to human FAP protein and cynomolgus FAP protein expressed on engineered 293T cells, with the binding capacities comparable to those of the antibody before mutation
[3]; 0 to 4 weeks
  change in purity by SEC during storage: did not exhibit significant changes in purity
[3]; 0 weeks
  Purity by SEC, %: 99.2%
[3]; 2 weeks
  Purity by SEC, %: 99.1%
[3]; 4 weeks
  Purity by SEC, %: 99.1%
